Source: patent US20030194403A1
pIC50: −log10 of the molar value.

Target: soluble epidermal growth factor receptor (EGFR), purified from A431 cells (Sigma E 3641) (human) (UniProt P00533)
Assay: ELISA, inhibition of EGF-biotin binding to immobilized EGFR (FIG. 8)

Work on “m225, a mouse IgG2a anti-EGFR antibody (hybridoma ATCC HB-8508)” yielded a pIC50 of 7.52.
